Target: T1, ERG-ETS domain (UniProt P11308 307-400)
T1 sequence: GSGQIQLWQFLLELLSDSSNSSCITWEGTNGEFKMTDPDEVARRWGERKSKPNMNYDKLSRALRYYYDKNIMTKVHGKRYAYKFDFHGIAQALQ
Assay: EMSA; no compound; 1 nM DNA; EMSA: protein stored in 20 mM sodium phosphate, 200 mM NaCl, 2 mM DTT, 0.1 mM EDTA, pH 6.5; reaction with 3% glycerol, 0.2 mg/mL BSA, 1 nM dsDNA, room temperature 1 h; 10% native gel run at 10 C
Settings: protein: recombinant; tags: His6 removed by thrombin; label: Alexa-488; blunt

B1: ETS consensus GGAA probe (dsDNA)
DNA 1: CGGCCAAGCCGGAAGTGAGTG
DNA 2: CACTCACTTCCGGCTTGGCCG
Kd: ~1 nM

Reference: PMC5522078, “Discovery and characterization of small molecules targeting the DNA-binding ETS domain of ERG in prostate cancer” (Oncotarget, 2017)
